The record followed here is publication PMC8673628.

Assay [1] deals with Thioredoxin reductase from Sphingomonas sp. PAMC 26621 (SpTR) (Sphingomonas sp. PAMC 26621).
For assay [2] the target is unchanged. Nature of the assay: SEC; Superdex 200 10/300 GL gel filtration in buffer D (50 mM sodium phosphate, pH 7.2, 100 mM NaCl); molecular weight against a protein standard mix. Background: Size exclusion chromatography separates by hydrodynamic size, large species first.

Regarding SpTrx F26A mutant (natural protein), in assay [1], the Km of SpTR for SpTrx F26A as substrate, 4°C (DTNB reduction at 412 nm, 50 nM SpTR, 0.1-10 μM Trx) turned out to be 6.8 µM and the Km of SpTR for SpTrx F26A as substrate, 30°C (DTNB reduction at 412 nm, 50 nM SpTR, 0.1-10 μM Trx) was 6.41 µM.

With “Thioredoxin from the psychrophilic Arctic bacterium Sphingomonas sp. PAMC 26621 (SpTrx), wild type (natural protein)”, in assay [1], the Km of SpTR for SpTrx as substrate, 4°C (DTNB reduction at 412 nm, 50 nM SpTR, 0.1-10 μM Trx) turned out to be 1.1 µM and the Km of SpTR for SpTrx as substrate, 30°C (DTNB reduction at 412 nm, 50 nM SpTR, 0.1-10 μM Trx) was 0.63 µM.

Regarding SpTrx F26W mutant (natural protein), in assay [1], the Km of SpTR for SpTrx F26W as substrate, 4°C (DTNB reduction at 412 nm, 50 nM SpTR, 0.1-10 μM Trx) worked out at 1.24 µM and the Km of SpTR for SpTrx F26W as substrate, 30°C (DTNB reduction at 412 nm, 50 nM SpTR, 0.1-10 μM Trx) was found to be 0.66 µM.

For the substance SpTrx F26Y mutant (natural protein), in assay [1], the Km of SpTR for SpTrx F26Y as substrate, 4°C (DTNB reduction at 412 nm, 50 nM SpTR, 0.1-10 μM Trx) is 1.17 µM and the Km of SpTR for SpTrx F26Y as substrate, 30°C (DTNB reduction at 412 nm, 50 nM SpTR, 0.1-10 μM Trx) came to 0.6 µM.

Take “Thioredoxin reductase from Sphingomonas sp. PAMC 26621 (SpTR) (enzyme)”: the stoichiometry N (in general, the number of molecules, sites or subunits per partner or assembly) in assay [2] was determined as 2.
